Measured values published in the supplement of paper PMC12764529.
± gives the half width of the 95% confidence interval.

What was measured:
[1] = folding stability dG unfold from trypsin proteolysis; higher = more stable
Procedure, shortened: (§1)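 Sequencing followed digestion of designed mini-proteins with trypsin and chymotrypsin, each at 11 concentrations in threefold dilutions together with a no-protease condition. The mini-proteins were under 80 residues, had no cysteine, sat in a PA-tagged cDNA display construct, and were kept only if AlphaFold2 dimer inter-PAE was above 15. From the counts, Bayesian fitting gave K50, and unfolding free energy was derived against a sequence-predicted unfolded-state K50 and a shared folded-state K50, per protease or combined.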

[2] = folding stability dG unfold (combined trypsin and chymotrypsin); higher = more stable
Procedure, shortened: as §1

[3] = folding stability dG unfold from chymotrypsin proteolysis; higher = more stable
Procedure, shortened: as §1

Sequence	folding stability dG unfold [1] [kcal/mol]	folding stability dG unfold [2] [kcal/mol]	folding stability dG unfold [3] [kcal/mol]
KTITIIIPMTPEQIEELAKALAEKLGLSEEEVEVVKVEKIKNEDGELYVKITIKLKETGKEITIIVPLKDLS [r1_21_TrROS_Hall]	1.76 ± 0.08	2.8 ± 0.12	3.2 ± 0.12
KTITIVIKNEDGELYVIKIKLKNGEEKEIVFKSLEELKNAIAKELGLSKEKIEIVEIKPLSPEELKELEKKS [r1_119_TrROS_Hall]	1.99 ± 0.13	3.33 ± 0.35	3.96 ± 0.14
KTITIVVKVPSLEEVEALAAELAKELNLPPGAKVEVKVEYDEETGYVVVTVTVTNPNGEKIEIKIVVELPDS [r1_84_TrROS_Hall]	1.86 ± 0.1	3.08 ± 0.22	3.72 ± 0.38
KTKTIVINAKDLTEEQLRELLKKLGVSEEDVEVSEDGKTVVIKIDGVTIVIVASPPKPVVKPDDPEAKKAAS [r1_57_TrROS_Hall]	1.27 ± 0.051	1.61 ± 0.12	1.75 ± 0.085
KTRHIPIRDALDEAEELIDEGPRMVKITIYNNNGQKHEIETLKDILDKLKSNFPGMPPDNMKVQVEVIPPPS [r1_325_TrROS]	-0.297 ± 0.68	-0.211 ± 0.3	-0.0938 ± 0.22
KVEIKVEIEVKYNKETGKKVVKIRITVKEGSKEEAEKLAAELAKELFGPNVKVTVEYDKETDEITVTLVFPS [r1_273_TrROS_Hall]	3.57 ± 0.15	3.96 ± 0.2	4.06 ± 0.18
LDPNKPENIALLEKVEEAAKAVIEELEKAGYKVEKLYVALGPNGIKIAPVTIPPEFIEELKKAGILVIPVLS [r1_134_TrMRF]	1.49 ± 0.11	1.56 ± 0.26	1.64 ± 0.14
MDDVVRVVLPVRVRIRDPVAPDRPEREVEILLERDVPLDEESLEELLEEAERAAEELARALGGEEAEVEPVS [r1_300_TrMRF]	0.135 ± 0.09	1.15 ± 0.089	1.54 ± 0.024
MEITITETENGYRVEVKIEITVIDPKTGEPVPLEIPVEAFVPASDPDPEKAAKEAAEKALEEVLKALPEGLS [r1_414_JUSTAS]	2.33 ± 0.21	1.99 ± 0.19	1.88 ± 0.091
MEVKIKVEIVKVEEVEVKKKKDGKEEKFIRIEIKIEVEAKPGLSEEEIKKLAEELAKKLKELGLEVEVKKES [r1_305_TrROS_Hall]	0.993 ± 0.091	1.96 ± 0.22	2.15 ± 0.13
MFKPGTKVTFGDKTVEVPEGDELYIFEGKVFGTSEVEAVLENMSDDAVGYKLVVEDETGKIVKVEEFVFKPS [r1_304_TrMRF]	-0.451 ± 0.25	-0.406 ± 0.43	-0.172 ± 0.51
MIPLTLEYDPEKKVIRLKTPDGKPVIVEAGDKGYRVIIYDPKTGKPTVIPVTEKELLDLAKNPAFNLDLAAS [r1_18_TrMRF]	1.94 ± 0.025	1.65 ± 0.059	1.23 ± 0.076
MKAHVTVVDLEDRYRARIELELPDGRVLVFEFEFDSWEEAIEFIRGLIAALPEDEVEIDHIEFLPPDGDPSS [r1_169_TrMRF]	3.92 ± 0.091	4.46 ± 0.1	4.73 ± 0.051
MKIRVEITVRNPDGEELKIEIVLSLEELEELRKEGKPLTLEELKALIEERARKLAEELDLEVEIKIVEIEPS [r1_174_TrROS_Hall]	4.11 ± 0.35	> 6	5.06 ± 0.89
MKKVKVTITITVPEEDKEKVKELIEKLKEAVPNVKVTSVEFDEKTGKITIVVEMTEEELEELKKALKEALES [r1_443_TrROS_Hall]	2.78 ± 0.11	2.06 ± 0.082	1.47 ± 0.036
MKPLTPDEVKELAKFIANMIRRRMRENGIKDVEIPVKVEPDPNGWYWINVSITFKYNGKPIGRFPIEIWVRS [r1_364_TrROS]	3.17 ± 0.045	3.57 ± 0.074	3.781 ± 0.019

Sequence	folding stability dG unfold [1] [kcal/mol]	folding stability dG unfold [2] [kcal/mol]	folding stability dG unfold [3] [kcal/mol]
MKPLTPEEVKKIAEGIAKEIEKAAKALGIDKVEVPVKIEKLPDGGYKIIIEVKLYKDDKKIGTFPIEIYIDS [r1_364_TrMRF]	3.51 ± 0.34	2.9 ± 0.39	3.1 ± 0.14
MKTIEIEIKLSPEIKEALKEGKPLSLEELVNKIKEEIAKKLGLKEVKVKKIEIKKDENGEIIIKVTIEVKPS [r1_290_TrROS_Hall]	3.9 ± 0.38	3.31 ± 0.27	2.77 ± 0.091
MKTITITVTDAPPGTVTIRVEIEREDGSTIEIEKEITVKPGDTITITLKEDEPYKIKKIEIYHNGKKIEITS [r1_70_TrROS_Hall]	2.58 ± 0.15	3.76 ± 0.33	3.81 ± 0.1
MKVVFTEEELPDAKVRKVFDPETGTITETVTYPSTSYTVTSTATITSFDPETGKVTITTTVSAPPEAGIPAS [r1_234_JUSTAS]	1.87 ± 0.05	1.63 ± 0.13	1.31 ± 0.057
MKYTLTLTDPTTPTTSTLTVPNDPEKALALLREAKAANPNLTATLTGVTSEEIVEAAKKAGLKDIKPKTAAS [r1_114_JUSTAS]	0.15 ± 0.13	0.316 ± 0.27	0.301 ± 0.27
MPAISIEEIIKLAKEAGKPAPPTVIVFNYKFGNTTRTLPVPLSEPVSLAEVEAAIKAADPNVTEITLTFVPS [r1_135_JUSTAS]	0.551 ± 0.088	1.07 ± 0.16	1.36 ± 0.12
MRFEFPLEDGGRVEVEMRPLPDGPVVLDVKITLPNGEEITIPFVFPREEFPDMDMEEIARRVVEEAIRLAKS [r1_92_TrMRF]	3.463 ± 0.033	4.77 ± 0.058	5.035 ± 0.038
MRITLELEDGTRVEIEFERKEDGTLVVRIKVTRKDGKTVEIEVVVRSKDGKITPEELERALREALEELLKKS [r1_124_TrROS_Hall]	4.19 ± 0.24	4.21 ± 0.38	4.06 ± 0.33
MRLRLTFRLPDGTEFRVERVEVLRVEPRGDRVVIPVRAYFTPEERRRLEELIPGLRDRPPLVVEVEIVLTGS [r1_35_TrMRF]	3.05 ± 0.083	3.96 ± 0.072	4.38 ± 0.055
MRRFEFPETGLVVPVVPSPDGRYRVRIYRPGGELVLEVELPDLPIPEGSDAEIRIPLKDLPPDLVTFVEPES [r1_263_TrMRF]	0.819 ± 0.054	1.21 ± 0.11	1.46 ± 0.09
MSEEERKKAAEERSKPPPVEIKVEVEVVKNEDGEEYLRVRVTVVDPETGEVIEEREFVVRREDLEELLKALS [r1_415_TrROS_Hall]	3.7 ± 0.16	3.45 ± 0.27	3.57 ± 0.15
MSEKTFVVEVKVESPEEAEELIEKLKEKLSGEKYEVKIEKVEVSPDGTVKVHITFKPGVPEEFIKKALEEES [r1_485_TrMRF]	2.28 ± 0.13	2.7 ± 0.11	2.97 ± 0.086
MTPDDMKDPNGMPPEDMWMVEIYVPRRDPEDGGPKWKPVGTIFIPPGMDPEELNEIIEELPGLDLIEIYPMS [r1_132_TrROS]	1.03 ± 0.089	1.33 ± 0.14	1.42 ± 0.043
MVITPEEVAEMLGVSPEELAALPLEELAQRILEVLPAGVATSVTVERDPARGTTTITVTLSDGKNIDVTLES [r1_340_JUSTAS]	4.41 ± 0.33	> 6	4.61 ± 0.47
NIRITDIEMYPFPNNNQPQMEFTLEWPNGPRRTVEFELPGQEMEVYVDPKKGEIWFYFPNNGMFMKITIEPS [r1_125_TrROS]	1.37 ± 0.068	2.63 ± 0.35	2.97 ± 0.1
